The target of assay [1] is T1, Siglec-9 expressed on cells (human, UniProt Q9Y336 18-463).
T1 construct: also called monocyte-expressed Siglec-9
Put plainly: flow cytometry on human CD14+ monocytes (PBMC), mean RFU of the secondary antibody, three-parameter fit. The protocol: Human ex vivo PBMC were stained with fluorescence-labeled (allophycocyanin, APC) antibody to the monocyte marker CD14 (Biolegend) in assay buffer (0.5% (v/v) heat-inactivated fetal bovine serum (Gibco), 2 mM EDTA in phosphate-buffered saline). Subsequently, cells were incubated with antibodies under evaluation at various concentrations (67 nM-0.38 pM). After a washing step cells were incubated with fluorescence-labeled (Brilliant Violet 421™) secondary antibody against human IgG (mAbA) or rabbit IgG (all other monoclonal antibodies under evaluation; both secondary antibodies from Biolegend).
Binding of Siglec-9-specific antibodies to monocytes (CD14-positive life cells) was analysed with a CytoFLEX flow cytometer (Beckham Coulter's). The mean fluorescence intensity of the secondary antibody staining in the CD14-positive population at each dilution was determined using Flow Jo software (BD). Datapoints generated by this analysis were fitted and EC50 values were determined by three-parameter analysis in GraphPad Prism (GraphPad Software)

For assay [2], the target named is T2, Siglec-5-Fc (R&D systems) (UniProt O15389 17-434, limits assumed).
T2 construct: Bought reagent; not shown: Fc part of the bought fusion; not described
T2 sequence (looked up): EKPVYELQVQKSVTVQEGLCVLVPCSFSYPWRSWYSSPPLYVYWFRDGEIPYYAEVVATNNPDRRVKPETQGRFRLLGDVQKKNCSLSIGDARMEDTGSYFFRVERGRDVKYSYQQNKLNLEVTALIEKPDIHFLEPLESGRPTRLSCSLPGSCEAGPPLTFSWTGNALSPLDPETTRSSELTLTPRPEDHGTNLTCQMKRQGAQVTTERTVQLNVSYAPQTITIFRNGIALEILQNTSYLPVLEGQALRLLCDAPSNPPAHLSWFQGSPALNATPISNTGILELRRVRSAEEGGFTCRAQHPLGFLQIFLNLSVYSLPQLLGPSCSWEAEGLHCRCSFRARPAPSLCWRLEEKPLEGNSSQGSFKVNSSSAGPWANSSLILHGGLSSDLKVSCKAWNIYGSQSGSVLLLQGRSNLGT
Put plainly: ELISA, coated Siglec-5-Fc 1 µg/ml, single antibody concentration, Abs 450 nm, n=3. As for the experimental part: (§1) Specificity towards Siglec-5, Siglec-7, Siglec-8, Siglec-15 and Siglec-9 was assayed in enzyme-linked immunosorbent assay (ELISA) using 96 well half-area ELISA plates (Corning). Siglec-5-Fc (R&D systems), Siglec-7-Fc (in-house production, Siglec-7-Fc protein used had the following amino acid sequence:
(§2) (SEQ ID NO: 59)) […] […] […] […] […] […] […] […] […] […] […] […], Siglec-8-Fc (R&D systems), Siglec-15- Fc (R&D systems) and Siglec-9-Fc (in-house production, SEQ ID NO: 11) were coated at 1 μg/ml in 50 mM carbonate-bicarbonate buffer pH 9.6 for 15-20 hours at 4° C.
(§3) Antigens were washed away (Tecan Hydrospeed) and plates were blocked with 5% skimmed milk in phosphate-buffered saline (PBS). After washing the plates, antibodies were added at 5 μg/ml (33 nM) in 0.5% milk PBS in triplicates. Plates with antibodies were incubated for 1 hour at room temperature. Plates were washed and bound antibodies were detected by horseradish peroxidase (HRP)-labeled polyclonal anti-rabbit IgG antibody (Biolegend) or anti-human Fab fragment for mAbA (Sigma Aldrich). 3,3′,5,5′-Tetramethylbenzidine (TMB; Sigma Aldrich) development was stopped by addition of sulfuric acid and absorbance was detected at 450 nm (Tecan, CM […] MONO 200).

Assay [3] has as its target T3, Siglec-9-Fc (in-house production).
T3 construct: The entry holds the Siglec-9 part and the Fc together; also called Siglec-9-Fc protein
Put plainly: blocking assay: Calcein-AM labelled sialic acid-displaying A549 tumour cells binding to plate-captured Siglec-9-Fc, antibody titrated, n=3. As for the experimental part: FIG. 4: Titration of monoclonal antibodies (68D4 and 224B1; comparative monoclonal antibodies mAbA and 5C6 & negative control 53C3) to determine blocking the binding of sialic acid-displaying A549 tumour cells to Siglec-9. Tumour cells were fluorescently-loaded with Calcein-AM in advance to the binding experiment and binding was determined by the released fluorescence upon cell lysis. Fluorescence released in the absence of antibody was set to 100% binding. Data was fitted by three-parameter analysis in GraphPad Prism (GraphPad Software); n=3.
To analyse if anti-Siglec-9 antibodies recognize the ligand-binding domain and block the binding of Siglec-9 to its ligands, sialic acids, we performed a cell-based assay where the binding of sialic-acid expressing A549 tumour cells to Siglec-9-Fc is evaluated in ELISA. ELISA-plates were coated with 3 μg/ml Protein-A (Thermo Fisher Scientific) overnight at 4° C. Plates were blocked with PBS, 1% BSA for 1 h, and incubated with 5 μg/ml Siglec-9-Fc for 1 h at RT. Anti-Siglec-9 antibodies at different concentrations (starting at 8 μg/ml or 53 nM); were mixed 1:1 with Calcein-AM (Thermo Fisher Scientific) labeled A549 tumour cells. The mixture was added to the ELISA plate and incubated for 1 h at 4° C. After washing of the plate, cells that were bound to the plate were lysed with PBS, 1% Triton-X 100 and released fluorescence was measured at an excitation of 485 nm and emission of 535 nm with a Synergy H1 (BioTek). Data were fitted by three-parameter analysis in GraphPad Prism (GraphPad Software).

Assay [4] concerns the target Siglec-9 protein (construct not stated; antigen of Examples 3 and 4) (human, UniProt Q9Y336 18-348, limits assumed). Put plainly: SPR (Carterra LSA), antibody coupled to HC2000M chip, antigen at 20, 100 and 500 nM. The protocol:
KD determination was performed by SPR by individually coating the antibodies to HC2000M chips via sulpho-NHS/EDC coupling chemistry. Chips were afterwards blocked with ethanolamine. Antigen was applied in one of the three different concentrations (20 nM, 100 nM and 500 nM) with a contact time of 240 s, followed by a dissociation phase of 120 s. After each antigen incubation, the bound antigen was removed from the antibodies with 10 mM glycine at pH 2.0. All kinetic parameters (kₒₙ, koff and KD) were determined using a kinetic fitting program (LSA Kinetics, Carterra).

For assay [5], the target named is T4, Siglec-8-Fc (R&D systems) (UniProt Q9NYZ4 17-363, limits assumed).
T4 construct: Bought reagent; not shown: Fc part of the bought fusion; not described
Put plainly: ELISA, coated Siglec-8-Fc 1 µg/ml, single antibody concentration, Abs 450 nm, n=3. As for the experimental part: as §1, §2, §3

Assay [6] has as its target T4, Siglec-8-Fc (R&D systems). Put plainly: ELISA, coated Siglec-8-Fc 1 µg/ml, single antibody concentration, anti-human Fab detection, Abs 450 nm, n=3. The protocol: as §1, §2, §3

Sequence of Siglec-9 protein (construct not stated; antigen of Examples 3 and 4) (Q9Y336 18-348 limits assumed): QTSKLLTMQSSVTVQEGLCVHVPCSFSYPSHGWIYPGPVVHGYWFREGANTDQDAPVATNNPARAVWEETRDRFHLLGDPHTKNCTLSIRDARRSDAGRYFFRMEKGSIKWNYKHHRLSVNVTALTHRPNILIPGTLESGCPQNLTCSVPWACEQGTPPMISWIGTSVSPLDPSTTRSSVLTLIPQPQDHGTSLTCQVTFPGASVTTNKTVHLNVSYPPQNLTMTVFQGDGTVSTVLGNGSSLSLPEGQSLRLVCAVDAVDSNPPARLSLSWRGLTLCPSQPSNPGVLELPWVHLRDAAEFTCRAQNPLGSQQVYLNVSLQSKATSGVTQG
T4 sequence (Q9NYZ4 17-363 limits assumed): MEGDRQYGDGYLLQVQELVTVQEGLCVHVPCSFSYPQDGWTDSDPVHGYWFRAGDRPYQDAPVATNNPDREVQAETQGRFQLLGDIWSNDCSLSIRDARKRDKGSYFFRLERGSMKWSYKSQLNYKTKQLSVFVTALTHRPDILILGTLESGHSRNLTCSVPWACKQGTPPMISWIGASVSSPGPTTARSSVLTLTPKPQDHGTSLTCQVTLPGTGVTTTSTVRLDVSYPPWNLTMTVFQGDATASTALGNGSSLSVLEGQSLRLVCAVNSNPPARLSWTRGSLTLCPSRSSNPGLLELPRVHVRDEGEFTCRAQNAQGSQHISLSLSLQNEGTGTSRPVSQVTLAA
T3 sequence (chain, as listed by the source limits assumed): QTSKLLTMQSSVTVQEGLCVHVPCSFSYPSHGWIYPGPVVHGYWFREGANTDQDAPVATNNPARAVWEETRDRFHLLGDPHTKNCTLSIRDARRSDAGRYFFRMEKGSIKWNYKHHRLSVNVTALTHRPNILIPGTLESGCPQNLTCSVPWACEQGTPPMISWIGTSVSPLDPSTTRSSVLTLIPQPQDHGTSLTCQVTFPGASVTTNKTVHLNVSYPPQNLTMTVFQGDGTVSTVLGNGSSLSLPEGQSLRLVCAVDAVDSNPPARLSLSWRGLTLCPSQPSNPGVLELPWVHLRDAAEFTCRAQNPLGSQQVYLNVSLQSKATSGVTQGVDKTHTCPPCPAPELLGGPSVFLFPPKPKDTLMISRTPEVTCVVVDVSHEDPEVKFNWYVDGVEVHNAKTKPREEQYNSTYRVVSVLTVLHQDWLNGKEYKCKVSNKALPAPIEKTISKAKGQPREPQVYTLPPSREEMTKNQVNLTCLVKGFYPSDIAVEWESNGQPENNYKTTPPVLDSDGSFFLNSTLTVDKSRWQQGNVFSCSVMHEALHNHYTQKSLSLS
T1 sequence (Q9Y336 18-463 limits assumed): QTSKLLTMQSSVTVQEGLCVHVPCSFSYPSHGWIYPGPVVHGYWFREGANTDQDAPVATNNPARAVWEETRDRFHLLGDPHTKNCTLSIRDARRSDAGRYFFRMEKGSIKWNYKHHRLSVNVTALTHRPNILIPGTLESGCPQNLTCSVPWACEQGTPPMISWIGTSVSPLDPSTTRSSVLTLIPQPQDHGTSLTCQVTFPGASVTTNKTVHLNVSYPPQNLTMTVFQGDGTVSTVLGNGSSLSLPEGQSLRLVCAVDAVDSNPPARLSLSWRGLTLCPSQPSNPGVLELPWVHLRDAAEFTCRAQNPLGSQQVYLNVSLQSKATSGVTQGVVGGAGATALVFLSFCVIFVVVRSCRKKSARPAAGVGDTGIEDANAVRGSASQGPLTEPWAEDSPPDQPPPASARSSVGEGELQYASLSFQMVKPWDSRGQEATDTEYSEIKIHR

B1: monoclonal antibody 224B1 (rabbit) (antibody, V domains shown)
VH: QSVEESGGRLVTPETPLTLTCTASGFSLSSYYMSWVRQAPGKGLEWIGYIWTDGSAHYATWTKGRFTISKTSSTTVDLKITSPTTEDTATYFCVRANSGSHTYIEKFNLWGPGTLVTVSS
VL: DVVMTQTPASVEATVGGSVTIKCQASPSINDELSWYQQKPGQRPTLLIYEASALESGVPSRFKGSGSGTEFTLTIGDLECADAATYYCQCTYGSRSDISYGNTFGGGTEVVVKG
For B1, in assay [1], the EC50 turned out to be 0.4 nM. Further, the binding result in assay [2] is “no binding (tested: 5 µg/ml)”. Moreover, the binding result in assay [3] is “binds”. For the same molecule, in assay [4], binding was characterised by a dissociation constant (Kd) of 5.1 nM, the koff is 0.0012 s⁻¹ and the kon was found to be 230000 M⁻¹ s⁻¹. Moreover, in assay [5], the binding result is listed as “no binding (tested: 5 µg/ml)”.

B2: comparative monoclonal antibody mAbA (WO 2017/153433), mouse-human chimera (antibody, human IgG1, kappa, V domains shown)
VH: QVQLQQPGAELVKPGSPVKLSCKASYFTFTSYWMHWVRQRPGQGLEWIGEINPSNGHTNYNEKFESKATLTVDRSSSTAYMQLSSLTSEDSAVFYCANGVESYDFDDALDYWGQGTSVTVSS
VL: DIQMTQTTSSLSASLGDRVTISCRASQDINNYLNWYQQKPDGTIKLLIYYTSRLHSGVPSRFSGSGSGTDYSLTINNLEQEDIATYFCQQGNTLPFTFGGGTKLEIKR
Consider B2, for which, in assay [3], the binding result is given as “binds”. In assay [4], this molecule returned a Kd of 2.5 nM, an off-rate constant (koff) of 0.00053 s⁻¹ and a kon of 210000 M⁻¹ s⁻¹. Also, the binding result in assay [6] is given as “no binding (tested: 5 µg/ml)”.

Values taken from patent publication US20230009582A1 (MEMO THERAPEUTICS, published 2023).
